Results: patent publication US12098175B2, “Peptide inhibitors targeting the CXCL12/HMGB1 interaction and uses thereof” (INSTITUTE FOR RESEARCH IN BIOMEDICINE, priority 2019, dated 2024)
Like-named read-outs stand apart in the source and are kept apart here. Where no end group is shown, it is not given here.

Assays:
[1] = biological target: T1, HMGB1 (Homo sapiens, UniProt P09429); conditions: literature value (Mollica et al. 2007); read-out: Kd reported for glycyrrhizin; cited from earlier work
T1 sequence (P09429 1-215): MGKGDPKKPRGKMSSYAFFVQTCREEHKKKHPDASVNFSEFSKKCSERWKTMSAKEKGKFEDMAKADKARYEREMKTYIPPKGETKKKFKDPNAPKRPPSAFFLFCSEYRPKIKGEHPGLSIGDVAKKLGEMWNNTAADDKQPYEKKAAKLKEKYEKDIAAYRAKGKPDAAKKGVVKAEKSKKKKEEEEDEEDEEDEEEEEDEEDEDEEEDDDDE

[2] = biological target: T1, HMGB1; assay: Binding affinity to HMGB1 by microscale thermophoresis (MST); conditions: for Kd (μM), equilibrium dissociation constant: MST, Example 6 (Table 4), highest peptide concentration 500 μM
Experimental: The protein and the peptide were incubated for 15 minutes at room temperature, to allow binding. MST analysis was performed using premium-coated capillary tubes on a NanoTemper® instrument using the following experimental settings: LED power of 5% (for fluorescence excitation), and laser power 40% (to create temperature gradient). Kd values were calculate from compound concentration-dependent changes in normalized fluorescence (Fnorm). Independent experiments were performed to calculate the Kd value. Data were analyzed by the NanoTemper® analysis software.
MST analysis was performed using premium-coated capillary tubes on a NanoTemper instrument using the following experimental settings: LED power of 5% (for fluorescence excitation), and laser power 40% (to create temperature gradient). Kd values were calculated from compound concentration-dependent changes in normalized fluorescence (Fnorm). Independent experiments were performed to calculate the Kd value. Data were analyzed by the NanoTemper analysis software.

[3] = Solubility in PBS; assay type: physicochemical
[4] = biological target: T2, CXCL12/HMGB1 heterocomplex (Homo sapiens, UniProt P09429); assay: In vitro chemotaxis (Boyden chamber): CXCL12/HMGB1-induced migration of 300.19 PreB cells expressing human CXCR4; assay type: cell-based, murine; conditions: peptides at 100 μM; CXCL12 1 nM, HMGB1 300 nM; compared with glycyrrhizin 200 μM; 300.19 PreB cells with human CXCR4
T2 sequence (P09429 1-215): T1 sequence (P09429 1-215)
Experimental: The 13 identified and synthesized peptides were tested in in vitro chemotaxis, to assess their efficacy as inhibitors of the CXCL12/HMGB1-induced migration, on a murine cell line expressing the human CXCR4.
All peptides, at 100 μM, were incubated with CXCL12 and HMGB1 before assessing chemotaxis, to evaluate their ability to interfere with the heterocomplex formation, and inhibit the synergistic effect of HMGB1.

[5] = biological target: CXCL12 (Homo sapiens, UniProt P48061); assay: In vitro chemotaxis: migration induced by CXCL12 alone, 300.19 PreB cells expressing human CXCR4; assay type: cell-based, murine; conditions: peptides at 100 μM; CXCL12 1 nM; 300.19 PreB cells with human CXCR4
CXCL12, sequence (P48061 22-93, species assumed): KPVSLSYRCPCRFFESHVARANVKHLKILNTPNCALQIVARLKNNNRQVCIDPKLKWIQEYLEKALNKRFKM
Experimental: Further experiments were performed with CXCL12 alone to identify peptides affecting cell migration induced by CXCL12 alone.
Briefly, chemotaxis was performed using Boyden chambers with 5 μm pore membranes. […] 200 μM glycyrrhizin were used as positive control.

Compound | Inhibition of the enhanced migration induced by the CXCL12/HMGB1 heterocomplex [4] | Effect on cell migration induced by CXCL12 alone [5] | further results
CC1(C)[C@@H](O[C@H]2O[C@H](C(=O)O)[C@@H](O)[C@H](O)[C@H]2O[C@@H]2O[C@H](C(=O)O)[C@@H](O)[C@H](O)[C@H]2O)CC[C@]2(C)[C@H]3C(=O)C=C4[C@@H]5C[C@@](C)(C(=O)O)CC[C@]5(C)CC[C@@]4(C)[C@]3(C)CC[C@@H]12 [glycyrrhizin] | – | – | Kd [1]: 125 µM
ERWIH [Pentapept-2, ERWIH] | – | – | Kd [2]: 200 ± 80 µM
GYHYE [Pentapept-1] | – | – | Kd (μM), equilibrium dissociation constant [2]: No binding*; Kd (μM), equilibrium dissociation constant ([2]; listed as pentapept-1): no binding was observed
GYHYEAWIH [HBP08-A6] | – | – | Solubility [3]: poorly soluble
HWTLANWCR (HBP07) | inhibit the enhanced migration induced by the CXCL12/HMGB1 heterocomplex more than glycyrrhizin at 200 μM | do not affect CXCL12-induced cell migration | –
WISNWILMW (HBP05) | inhibit the enhanced migration induced by the CXCL12/HMGB1 heterocomplex more than glycyrrhizin at 200 μM | inhibit the migration induced by the chemokine alone | –
YHICWYGDY (HBP12) | inhibit the enhanced migration induced by the CXCL12/HMGB1 heterocomplex more than glycyrrhizin at 200 μM | inhibit the migration induced by the chemokine alone | –
